The record followed here is PMC3839849.

Common to all, as to experiment: ITC
The target of experiment [1] is CaV1.2 IQ domain (Homo sapiens) (UniProt Q13936).
Experiment [2] addresses CaV1.2 IQ domain TripleA mutant (CaV1.2 F1618A, F1619A, Y1622A) (human).
The target is the same in experiment [3]. The source holds these as a separate data set.
The target in experiment [4] is CaV1.2 IQ domain (human).

For orientation: Kd means a measure of binding affinity in units of concentration. A higher Kd goes with a looser complex. What is called stoichiometry N is the number of molecules, sites or subunits per partner or assembly.

Read-outs that look alike come from different tables or passages of the source.

In turn, CaBP1 N-lobe, Q9NZU7 showed a Kd in experiment [1] of 1100 nM.

For the substance “calcium binding protein 1 (CaBP1) Δ2–15 (natural protein)”, the Kd in experiment [2] came to 221 nM. In experiment [3], this substance gave a Kd of 10.9 nM, a dH of -4.77 kcal/mol and a stoichiometry N of 0.89.

In experiment [4], “calmodulin (CaM), full-length (from UniProt P0DP23 1-149) (natural protein)” displayed a Kd of 0.00085 nM and a dH of -5.74 kcal/mol. Besides, the dH in experiment [3] was -10.6 kcal/mol.
